Laboratory results: paper PMC9110426, “Cooperative regulation of PBI1 and MAPKs controls WRKY45 transcription factor in rice immunity”

Target: T1, Myc-WRKY45 (Oryza sativa (rice), UniProt Q5W6D6 1-326)
T1 sequence: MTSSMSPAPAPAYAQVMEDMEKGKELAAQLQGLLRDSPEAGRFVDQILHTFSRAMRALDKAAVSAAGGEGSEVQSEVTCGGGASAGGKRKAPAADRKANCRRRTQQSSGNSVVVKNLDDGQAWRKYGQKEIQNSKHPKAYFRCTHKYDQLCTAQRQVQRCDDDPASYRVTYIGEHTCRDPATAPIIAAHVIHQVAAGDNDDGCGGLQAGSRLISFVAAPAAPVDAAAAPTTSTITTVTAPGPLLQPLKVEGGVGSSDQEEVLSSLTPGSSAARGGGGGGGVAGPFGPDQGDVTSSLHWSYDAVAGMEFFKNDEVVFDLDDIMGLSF
Assay: EMSA; 10 uM ZnCl2; poly(dI-dC); suppressed by excess unlabeled probe (40-fold in Methods, 50-fold in Supplementary Fig. 10c); 25 mM HEPES-KOH pH 7.6, 40 mM KCl, 0.1% Nonidet P-40, 10 uM ZnCl2, 1 mg/mL BSA, 10% glycerol, 1 mM DTT, 0.15 ug poly(dI-dC); 25 min at room temperature; 6% PAGE in Tris-borate at 4 C
Settings: protein: ivt; tags: Myc; blunt

B1: DFA promoter W-box probe (dsDNA)
DNA 1: AGTTGGCAAAAGCTAAGTACAAGTCATTGTGTGGTCAATTGATCGACTGATCTGTTGCTC
DNA 2: GAGCAACAGATCAGTCGATCAATTGACCACACAATGACTTGTACTTAGCTTTTGCCAACT
B1: binds.
